In the Human Domainome abundance scans (Beltran et al. 2025):
± gives the uncertainty stated by the source.

B1: Zinc finger homeobox protein 4, residues 2183 to 2238; numbered along this chain, Q86UP3 (parent)
chain: SSRTRFTDYQLRVLQDFFDTNAYPKDDEIEQLSTVLNLPTRVIVVWFQNARQKARK

Variants of: B1
Experiment: abundance fitness (aPCA) (normalised: wild type 0, dead -1); higher = more abundant; growth selection in yeast, the domain comes from the species named
Conditions: Homo sapiens

Abundance fitness of substitutions, site by site:
R12: Q -0.014 ± 0.15; C -0.732 ± 0.13
R3: T 0.368 ± 0.13; M 0.344 ± 0.12; D 0.343 ± 0.14; L 0.358 ± 0.089; G 0.297 ± 0.065; A 0.358 ± 0.083; P 0.09 ± 0.12; Q 0.053 ± 0.11; N 0.364 ± 0.13; W 0.253 ± 0.094; F 0.32 ± 0.2; Y 0.198 ± 0.16; I 0.489 ± 0.16; C 0.484 ± 0.099; V 0.334 ± 0.08; E 0.201 ± 0.11; K 0.31 ± 0.12; H 0.367 ± 0.12
T7: Y -0.574 ± 0.32; C -0.586 ± 0.17; A -0.14 ± 0.11; P -0.368 ± 0.16; V -0.299 ± 0.11; G -0.333 ± 0.086; H -0.597 ± 0.41; Q -0.27 ± 0.17; M -0.278 ± 0.14; K -0.455 ± 0.18; R -0.67 ± 0.093; W -0.719 ± 0.15; L -0.384 ± 0.12; S -0.014 ± 0.11; D -0.081 ± 0.18
N21: H -0.219 ± 0.15; R -0.181 ± 0.08; E -0.197 ± 0.1; K -0.201 ± 0.11; L -0.488 ± 0.099; M -0.414 ± 0.13; C 0.346 ± 0.16; F -0.451 ± 0.17; I -0.187 ± 0.18; D -0.128 ± 0.13; A -0.176 ± 0.087; G -0.387 ± 0.077; Q -0.497 ± 0.13; P -0.718 ± 0.17; S -0.2 ± 0.099
D16: Y -0.458 ± 0.22; G 0.093 ± 0.084; K -0.108 ± 0.15; L -0.602 ± 0.098; Q 0.027 ± 0.12; R -0.083 ± 0.088; P -0.357 ± 0.14; W -0.838 ± 0.14; C -0.32 ± 0.16; M -0.323 ± 0.12; E 0.014 ± 0.11; F -0.806 ± 0.25; V -0.25 ± 0.086; N -0.034 ± 0.14; T -0.29 ± 0.13; I -0.644 ± 0.21; S 0.042 ± 0.097; H -0.193 ± 0.17; A -0.065 ± 0.12
Q15: I -0.141 ± 0.13; N -0.158 ± 0.26; W -0.333 ± 0.098; P -0.708 ± 0.14; V -0.095 ± 0.082; Y -0.27 ± 0.18; D -0.072 ± 0.12; L -0.036 ± 0.083; M 0.058 ± 0.15; R -0.107 ± 0.082; E -0.139 ± 0.12; G -0.102 ± 0.082; A -0.05 ± 0.082; S -0.004 ± 0.087; F -0.186 ± 0.15; T -0.069 ± 0.11
F18: K -0.194 ± 0.11; T -0.449 ± 0.074; A -0.117 ± 0.082; G -0.711 ± 0.12; I -0.16 ± 0.076; R -0.222 ± 0.078; N -0.459 ± 0.086; P -0.891 ± 0.096; W -0.027 ± 0.14; S -0.225 ± 0.071; C -0.139 ± 0.097; Y 0.101 ± 0.086; E -0.486 ± 0.15; Q -0.329 ± 0.093; H -0.139 ± 0.08; D -0.887 ± 0.15
Y9: E 0.081 ± 0.098; S 0.14 ± 0.099; V -0.038 ± 0.081; C -0.102 ± 0.13; G 0.062 ± 0.072; A 0.167 ± 0.086; D -0.128 ± 0.13; W 0.02 ± 0.11; F 0.261 ± 0.19; R 0.11 ± 0.076; N 0.057 ± 0.13; K 0.318 ± 0.12; M 0.025 ± 0.11; T 0.167 ± 0.1; I -0.351 ± 0.3; Q 0.283 ± 0.1
R5: Y 0.213 ± 0.15; I 0.238 ± 0.13; T 0.22 ± 0.13; E 0.218 ± 0.22; C 0.272 ± 0.11; G -0.109 ± 0.11; H 0.194 ± 0.15; P 0.001 ± 0.12; W -0.11 ± 0.17; Q -0.241 ± 0.24; M 0.309 ± 0.15; L 0.193 ± 0.1; N 0.358 ± 0.14; K 0.195 ± 0.2; D 0.338 ± 0.29; V 0.133 ± 0.13
S2: L -0.144 ± 0.098; W -0.477 ± 0.17; G -0.004 ± 0.077; H -0.106 ± 0.16; I -0.059 ± 0.13; T 0.151 ± 0.13; V -0.043 ± 0.087; F -0.229 ± 0.14; Y -0.07 ± 0.14; K 0.053 ± 0.19; P -0.012 ± 0.12; M 0.102 ± 0.17; N 0.125 ± 0.15; E 0.195 ± 0.11; Q 0.262 ± 0.16; R -0.106 ± 0.091
T4: P -0.109 ± 0.11; K -0.571 ± 0.15; Y 0.323 ± 0.16; F -0.182 ± 0.16; G -0.328 ± 0.092; A -0.698 ± 0.14; N 0.047 ± 0.14; Q -0.269 ± 0.16; M 0.392 ± 0.11; H 0.096 ± 0.13; V -0.602 ± 0.11; W -0.433 ± 0.12; L 0.072 ± 0.083; E -0.368 ± 0.13; C -0.446 ± 0.13; S 0.019 ± 0.087; R -0.533 ± 0.08; D 0.015 ± 0.16
